Measurements reported in patent US20100190202A1, “NOVEL POPULATION OF HEPATOCYTES DERIVED VIA DEFINITIVE ENDODERM (DE-HEP) FROM HUMAN BLASTOCYSTS STEM CELLS” (Cellartis AB, priority 2007, published 2010).

B1: Activin A: TGF-beta family member used at 100 ng/ml to induce definitive endoderm (protein, UniProt P08476 311-426, looked up)
Inhibin beta A chain: GLECDGKVNICCKKQFFVSFKDIGWNDWIIAPSGYHANYCEGECPSHIAGTSGSSLSFHSTVINHYRMRGHSPFANLKSCCVPTKLRPMSMLYYDDGQNIIKKDIQNMIVEECGCS
modifications: Inhibin beta A chain
notes: TGF-beta family member used at 100 ng/ml to induce definitive endoderm
B2: activin B: activin B, 100 ng/ml, substituted for activin A for induction of endoderm (protein, UniProt P09529 293-407, looked up)
Inhibin beta B chain: GLECDGRTNLCCRQQFFIDFRLIGWNDWIIAPTGYYGNYCEGSCPAYLAGVPGSASSFHTAVVNQYRMRGLNPGTVNSCCIPTKLSTMSMLYFDDEYNIVKRDVPNMIVEECGCA
modifications: Inhibin beta B chain

Key:
[1] = system: hBS cells; assay: Sox17/Sox7 immunostaining of Activin A treated hBS cell cultures; assay type: cell-based, human; details: after 4 days in Activin A; of the remaining cells
Source text: We used Activin A, and Activin A in combination with Wnt3a and/or FGF2 to generate DE. After 4 to 5 days in Stage I the hBS cell colony differentiated and genetic markers for early DE were examined using quantitative real-time real time-PCR (Q-PCR). Activin A induced a strong wave of early endoderm at day 3 to 5, and was highlighted by high expression levels of Sox17, HNF3beta (HNF3b or HNF3b) and Cxcr4 expression (FIG. 4) and then reduced to near baseline levels (data not shown). […] Furthermore they up regulate early liver markers like AFP or AAT. At this early stage in differentiation and development, this indicates the presence of extraembryonic endoderm (ExE) in intrinsically differentiating colonies (FIGS. 5 and 10). The expression data were confirmed by co-staining of Sox17/Sox7, Sox17/Cxcr4, Sox17/Oct4, Sox7/HNF3b (data not shown). […] The changes of gene expression after Activin A treatment were associated to morphological changes and distinct differentiation pattern of the colonies (FIG. 2). After 4 to 5 days induction with Activin A containing medium cells gathered together and formed a ring of epithelial cells around the colony. […]
Activin A induces definitive endoderm detected by a combination of Sox17+/Sox7−, 80-90% of the total cells in a Activin A or Activin A/FGF2 treated culture are estimated to be Sox17 positive and negative for Sox7 (manual counting in microscope). […]

[2] = system: hESC line SA002; assay: Real-time PCR after exposure to activin A or activin B; assay type: cell-based, human; details: 100 ng/ml, 5 ng/ml bFGF, 5 days
Method: Undifferentiated hESC line SA002 were exposed to either activin A (100 ng/ml) or activin B (100 ng/ml) in the presence of 5 ng/ml bFGF for 5 days and analyzed for gene expression.
mRNA expression of Foxa2, Sox17, CXCR4, Sox7, CDX2, AAT was measured by real-time PCR using the ABI/TaqMan method. In short, RNA was isolated from the cell cultures by using Qiagen's RNeasy system. cDNA was synthesized by using the ABI high capacity cDNA synthesis kit. RT-PCR was performed in a ABI 7500 by using TaqMan probe. The expression level was normalized to CREBBP expression.

| Molecule | Sox17 positive cells [1] | mRNA expression of endodermal markers Foxa2, Sox17 and CXCR4 compared to activin A [2] | mRNA expression of extraembryonal markers Sox7, CDX2 and AAT compared to activin A [2] |
| --- | --- | --- | --- |
| B1 | more than 70% |  |  |
| B2 |  | either the same or even higher | the same or lower |
